Patent US5747447A, “Stable polypeptide composition” (COR Therapeutics, priority 1995, dated 1998)

B1: cotiarin (protein)
peptide: EAGEECDCGAPENPCCDAATCKLRPGAQCAEGLCCDQCRFKGAGKICRRARGDNPDDRCTGQSADCPRNRFH
B2: barbourin (protein)
peptide: EAGEECDCGSPENPCCDAATCKLRPGAQCADGLCCDQCRFMKKGTVCRVAKGDWNDDTCTGQSADCPRNGLYG

How the values were obtained:
vitronectin receptor = vitronectin receptor (Homo sapiens, UniProt P05106+P06756); experiment: plate assay, inhibition of vitronectin binding to vitronectin receptor
Source text: The PAI assay systems further include characterization of the PAI specificity by binding inhibition assays identical to that above but substituting other adhesive proteins for Fg and other receptors for GP IIb-IIIa. In particular, inhibition of the binding of vitronectin to the vitronectin receptor; fibronectin to the fibronectin receptor; fibronectin to GP IIb-IIIa and fibrinogen and/or vWF to GP IIb-IIIa can be assessed. The adhesive protein and receptors for these assays are available in the art.

M21 melanoma cells = experiment: M21 melanoma cell adhesion to vitronectin-coated plates; type: cell-based
Method: M21 melanoma cells were labelled with ^35 S-methionine, and then added to vitronectin-coated plates in the presence of the indicated concentrations of purified snake venom peptides. Cell attachment was measured by solubilizing the cells remaining after an incubation and wash, as previously describe.

[1] = molecular target: ADP-induced human platelet aggregation (Homo sapiens, UniProt P05106+P08514); experiment: standard aggregation inhibition assay (ADP-induced human platelet aggregation); type: cell-based
Source text: 2. Standard assays directly applied to platelet aggregation, such as those described by Gann, Z.-R., et al., J Biol Chem (1988) 263:19827-19832; Huang, T. F., et al., J Biol Chem (1987) 262:16157-16163; Biochemistry (1989) 28:661-666, cited above and incorporated herein by reference;

Chain of vitronectin receptor (P06756 31-889 limits assumed): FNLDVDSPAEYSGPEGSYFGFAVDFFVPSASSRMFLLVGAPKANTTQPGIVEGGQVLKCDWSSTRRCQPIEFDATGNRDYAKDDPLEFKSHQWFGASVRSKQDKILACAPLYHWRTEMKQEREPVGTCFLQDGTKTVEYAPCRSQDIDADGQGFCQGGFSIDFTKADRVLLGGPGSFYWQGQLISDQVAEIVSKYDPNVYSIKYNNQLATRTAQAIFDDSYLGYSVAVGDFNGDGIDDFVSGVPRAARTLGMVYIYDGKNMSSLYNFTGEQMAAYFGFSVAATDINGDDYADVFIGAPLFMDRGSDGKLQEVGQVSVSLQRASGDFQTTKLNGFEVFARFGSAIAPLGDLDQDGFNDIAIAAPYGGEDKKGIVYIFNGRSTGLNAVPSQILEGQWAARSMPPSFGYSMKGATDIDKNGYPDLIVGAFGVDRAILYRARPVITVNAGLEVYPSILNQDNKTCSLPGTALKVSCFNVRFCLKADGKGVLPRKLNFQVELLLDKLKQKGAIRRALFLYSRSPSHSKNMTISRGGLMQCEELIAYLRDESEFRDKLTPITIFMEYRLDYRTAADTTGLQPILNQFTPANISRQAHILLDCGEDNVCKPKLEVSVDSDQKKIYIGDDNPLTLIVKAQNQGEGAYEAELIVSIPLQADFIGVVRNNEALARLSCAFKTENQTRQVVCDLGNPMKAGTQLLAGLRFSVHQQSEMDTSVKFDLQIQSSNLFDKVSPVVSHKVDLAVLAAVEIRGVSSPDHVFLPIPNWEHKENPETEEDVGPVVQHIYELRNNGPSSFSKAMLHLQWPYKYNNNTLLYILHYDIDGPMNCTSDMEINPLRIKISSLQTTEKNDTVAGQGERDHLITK
Chain of vitronectin receptor (P06756 891-1048 limits assumed): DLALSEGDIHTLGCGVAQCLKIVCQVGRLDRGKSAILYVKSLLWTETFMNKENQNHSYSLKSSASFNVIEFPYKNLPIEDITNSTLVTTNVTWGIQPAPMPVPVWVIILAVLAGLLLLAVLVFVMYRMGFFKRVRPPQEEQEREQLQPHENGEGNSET
Chain of vitronectin receptor (P05106 27-788): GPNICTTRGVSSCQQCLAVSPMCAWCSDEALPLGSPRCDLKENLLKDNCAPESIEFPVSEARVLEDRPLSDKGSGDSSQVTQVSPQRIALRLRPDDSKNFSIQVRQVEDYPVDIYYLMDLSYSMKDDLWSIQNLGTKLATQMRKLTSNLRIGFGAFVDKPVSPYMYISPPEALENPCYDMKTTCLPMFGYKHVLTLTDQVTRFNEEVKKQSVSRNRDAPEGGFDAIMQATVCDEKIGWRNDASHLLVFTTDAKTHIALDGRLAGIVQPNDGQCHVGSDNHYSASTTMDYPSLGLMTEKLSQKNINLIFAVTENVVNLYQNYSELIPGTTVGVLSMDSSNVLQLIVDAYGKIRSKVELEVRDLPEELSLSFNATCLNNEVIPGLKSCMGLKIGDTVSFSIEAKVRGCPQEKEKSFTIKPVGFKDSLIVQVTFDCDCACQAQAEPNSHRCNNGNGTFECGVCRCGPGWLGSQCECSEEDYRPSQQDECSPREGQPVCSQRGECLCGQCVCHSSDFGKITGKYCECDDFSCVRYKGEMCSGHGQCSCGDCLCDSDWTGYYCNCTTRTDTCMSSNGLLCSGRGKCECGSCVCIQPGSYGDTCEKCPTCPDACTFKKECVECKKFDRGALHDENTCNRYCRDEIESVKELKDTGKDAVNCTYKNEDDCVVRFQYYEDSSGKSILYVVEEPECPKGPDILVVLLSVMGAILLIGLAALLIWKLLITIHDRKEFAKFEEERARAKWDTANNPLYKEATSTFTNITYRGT

Row | Molecule | inhibition of vitronectin binding to the vitronectin receptor (in words) (vitronectin receptor) | M21 cell attachment to vitronectin (in words) (M21 melanoma cells) | platelet aggregation inhibition activity (in words) [1]
1 | B1 | potent inhibitor | very potent in inhibiting cell attachment to vitronectin | 
2 | B2 |  | Neither barbourin nor Peptide 1 (truncated barbourin) had a significant effect | potent inhibitors of platelet aggregation
